The target of the test is anti-dnaJ antibodies in sera obtained from patients with early stage RA. Briefly: inhibition ELISA; rdnaJ-coated plates, sera 1:100 preincubated with the peptide, goat anti-human IgG detection.

With QKRAAYDQYGHAAFE [wild-type dnaJ peptide …], the inhibition of antibody binding to rdnaJ, fold against control sera came to 3 fold.

The record behind these values is EP0762881B1.
